Measured values as given in patent US20110039729A1.

How the values were obtained:
[1] = target: soybean agglutinin (SBA), GalNAc-specific lectin (soybean) (UniProt P05046)
[2] = target: soybean agglutinin (SBA), GalNAc-specific lectin (soybean) (UniProt P05046); assay: single SBA panning step, 8×10^10 aglycosylated phage applied
[3] = target: soybean agglutinin (SBA), GalNAc-specific lectin (soybean) (UniProt P05046); assay: single SBA panning step, 8×10^6 cfu glycophage alone
[4] = target: soybean agglutinin (SBA), GalNAc-specific lectin (soybean) (UniProt P05046); assay: single SBA panning step, glycophage with 10^2-fold excess of aglycosylated phage
[5] = target: soybean agglutinin (SBA), GalNAc-specific lectin (soybean) (UniProt P05046); assay: single SBA panning step, glycophage with 10^4-fold excess of aglycosylated phage
[6] = target: soybean agglutinin (SBA), GalNAc-specific lectin (soybean) (UniProt P05046); assay: single SBA panning step, 8×10^6 cfu glycophage mixed with an equal amount of aglycosylated phage

UniProt P05046, sequence (P05046 33-285 limits assumed): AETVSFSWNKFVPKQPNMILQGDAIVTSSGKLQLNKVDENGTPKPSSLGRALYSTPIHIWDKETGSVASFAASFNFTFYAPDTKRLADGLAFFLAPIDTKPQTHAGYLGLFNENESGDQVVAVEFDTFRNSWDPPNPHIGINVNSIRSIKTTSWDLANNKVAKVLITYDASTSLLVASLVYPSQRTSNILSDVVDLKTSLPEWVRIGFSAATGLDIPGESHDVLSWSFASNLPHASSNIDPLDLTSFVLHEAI

Substance	phage titer in the eluate [1]	infectious particles bound to SBA [2]	fold increase in phage titer in the eluate [1]	percent of phages recovered [3]	phages recovered [3]	percent of phage bound by SBA [4]	phage bound by SBA [4]	percent of phage bound by SBA [5]	phage bound by SBA [5]	percent of phage bound by SBA [6]	phage bound by SBA [6]
non-glycosylated AcrA-g3p fusion protein from TG1 pglmut cells (in lysates and displayed on phage) (from UniProt P69168 19-424)	1000 cfu/ml	38000 cfu									
glycosylated AcrA-g3p fusion protein from TG1 pgl+ cells (in lysates and displayed on phage) (from UniProt P69168 19-424)	1e+06 cfu/ml		1000 fold	96%	7.7e+06 cfu	93%	7.4e+06 cfu	79%	6.3e+06 cfu	96%	7.8e+06 cfu
